Test results taken from patent US7393448B2, “Method of binding a compound to a sensor surface” (Applied NanoSystems B.V., priority 2002, dated 2008).
Each block holds one molecule with its values, some of them ahead of it.

Experiments:
[1] = Immobilization of electroactive molecules on HYDPt-1-modified electrodes (cyclic voltammetry); type: physicochemical; details: Q10 bound to GCE covered with HYDPt-1
Procedure: Electrochemical experiments. Voltammetry experiments were done at 20° C. in three-electrode arrangement, with a calomel reference electrode, platinum foil counter electrode and GE, GCE or TMFE as working electrodes. Eco Chemie AUTO-LAB PGSTAT 30 system was used as the potentiostat with an IBM PC and Eco Chemie software. In order to prepare the TMFE, a silver wire or silver disk electrode precleaned in concentrated perchloric acid was touched to a drop of mercury and cathodically polarized in 0.1 M KOH to obtain a shining and uniform layer of mercury, ca. 1 mm thick. The GE and GCE were polished on Buehler polishing papers and paste, and the GE was cleaned in concentrated nitric acid. The electrodes were coated with the self-assembled hydrophobin upon contact with the surface of solutions containing 2 μg of hydrophobin per 1 ml of 10 mM Tris-HCl buffer. The time of the hydrophobin self-assembly and the conditions of Q0, Q10 and diazobenzene adsorption on hydrophobin-coated electrodes are given below.
Hydrophobin as a “molecular glue” for immobilizing molecules on the electrode surface. In the present work, we checked the ability of HYDPt-1 to bind through adsorption to different types of electroactive molecules to electrode surfaces. […]
Curve 1 was recorded after adsorption of the diazobenzene for the same lapse of time, but on the bare GCE. […]

[2] = Immobilization of cholesterol oxidase on hydrophobin-coated glassy carbon electrode, current response to cholesterol; type: biochemical; details: GCE, phosphate buffer pH 7 (25 mM), cholesterol added
Source text: Immobilization of cholesterol oxidase on a glassy carbon electrode. […] The coated electrode was submerged in a cholesterol oxidase-containing solution (0.5 U/ml) for two hours and rinsed with water.
To overcome the poor solubility of cholesterol in water, the cholesterol was solubilized in isopropanol with Triton in phosphate buffer (Ropers, M-H. et al., 2001, Phys. Chem. Chem. Phys. 3:240-245). Upon addition of cholesterol, the immobilized cholesterol oxidase catalyzed the reaction and led to formation of hydrogen peroxide. The peroxide produced a small detectable current over the electrode which correlated to the concentration of cholesterol added.

[3] = cited from earlier work
[4] = at 50 μg ml^−1; cited from earlier work

stability of ubiquinone reduction and oxidation signals [1]: remained unchanged for several weeks
Molecule: COC1=C(OC)C(=O)C(C/C=C(\C)CC/C=C(\C)CC/C=C(\C)CC/C=C(\C)CC/C=C(\C)CC/C=C(\C)CC/C=C(\C)CC/C=C(\C)CC/C=C(\C)CCC=C(C)C)=C(C)C1=O [Q10, ubiquinone 50]

Molecule: cholesterol oxidase
enzyme activity upon immobilization on the hydrophobin layer [2]: remaining active

B1: SC3: best characterized class I hydrophobin, of Schizophyllum commune (protein, UniProt P16933 25-136, looked up)
Class I hydrophobin SC3: GGHPGTTTPPVTTTVTVTTPPSTTTIAAGGTCTTGSLSCCNQVQSASSSPVTALLGLLGIVLSDLNVLVGISCSPLTVIGVGGSGCSAQTVCCENTQFNGLINIGCTPINIL
water contact angle, hydrophilic side of SC3 membrane ([3]; hydrophilic side): 36 ° | water contact angle, hydrophobic side of SC3 membrane ([3]; hydrophobic side): 110 ° | maximal lowering of the water surface tension (from 72) [4]: 24 mJ m^−2
